Laboratory results taken from US7449563B2, “Methods and compositions for destabilizing microtubules” (Academia Sinica, priority 2003, dated 2008).
Entries after “also recorded” stand apart in the source; their conditions may differ. No end group written: not given here.

B1: peptide M: synthetic peptide, amino acid residues 320-390 of CPAP (SEQ ID NO:1) (peptide, listed as Homo sapiens)
chain: ANIEERPIKAAIGERKQTFEDYLEEQIQLEEQELKQKQLKEAEGPLPIKAKPKQPFLKRGEGLARFTNAKS
B2: GST-CM: GST fusion polypeptide corresponding to amino acid residues 132-607 of CPAP (protein)
chain: EFKEGAYKDPLFKKLEQLKEVQQKKQEQLKRQQLEQLQRLMEEQEKLLTMVSGQCTLPGLSLLPDDQSQKHRSPGNTTTGERATCCFPSYVYPDPTQEETYPSNILSHEQSNFCRTAHGDFVLTSKRASPNLFSEAQYQEAPVEKNNLKEENRNHPTGESILCWEKVTEQIQEANDKNLQKHDDSSEVANIEERPIKAAIGERKQTFEDYLEEQIQLEEQELKQKQLKEAEGPLPIKAKPKQPFLKRGEGLARFTNAKSKFQKGKESKLVTNQSTSEDQPLFKMDRQQLQRKTALKNKELCADNPILKKDSKARTKSGSVTLSQKPKMLKCSNRKSLSPSGLKIQTGKKCDGQFRDQIKFENKVTSNNKENVTECPKPCDTGCTGWNKTQGKDRLPLSTGPASRLAAKSPIRETMKESESSLDVSLQKKLETWEREKEKENLELDEFLFLEQAADEISFSSNSSFVLKILERDQQI
modifications: left off: a dimerising Fc or GST
notes: GST fusion polypeptide corresponding to amino acid residues 132-607 of CPAP
B3: GST-PN2-3: GST fusion polypeptide corresponding to residues 311-422 of CPAP (protein)
chain: QKHDDSSEVANIEERPIKAAIGERKQTFEDYLEEQIQLEEQELKQKQLKEAEGPLPIKAKPKQPFLKRGEGLARFTNAKSKFQKGKESKLVTNQSTSEDQPLFKMDRQQLQR
modifications: left off: a dimerising Fc or GST
notes: GST fusion polypeptide corresponding to residues 311-422 of CPAP
B4: GFP-PN1: GFP-tagged CPAP residues 1-132 (protein, UniProt Q9HC77 1-132, looked up, fragment)
chain: MFLMPTSSELNSGQNFLTQWMTNPSRAGVILNRGFPILEADKEKRAAVDISTSFPIKGTHFSDSFSFINEEDSLLEEQKLESNNPYKPQSDKSETHTAFPCIKKGPQVAACHSAPGHQEENKNDFIPDLASE
modifications: GFP tag
B5: GFP-A5N: GFP-tagged CPAP residues 423-607 (protein, UniProt Q9HC77 423-607, looked up, fragment)
chain: KTALKNKELCADNPILKKDSKARTKSGSVTLSQKPKMLKCSNRKSLSPSGLKIQTGKKCDGQFRDQIKFENKVTSNNKENVTECPKPCDTGCTGWNKTQGKDRLPLSTGPASRLAAKSPIRETMKESESSLDVSLQKKLETWEREKEKENLELDEFLFLEQAADEISFSSNSSFVLKILERDQQI
modifications: GFP tag
B6: GFP-CM: GFP-tagged CPAP residues 132-607, expressed from a transfected vector (protein, UniProt Q9HC77 132-607, looked up, fragment)
chain: B2 chain
modifications: GFP tag
notes: GFP-tagged CPAP residues 132-607, expressed from a transfected vector
B7: GFP-A5C: GFP-tagged CPAP residues 1070-1338 (protein, UniProt Q9HC77 1070-1338, looked up, fragment)
chain: KLANTSVRFQNSQISSGTQVEKYKKNYLPMQGNPPRRSKSAPPRDLGNLDKGQAASPREPLEPLNFPDPEYKEEEEDQDIQGEISHPDGKVEKVYKNGCRVILFPNGTRKEVSADGKTITVTFFNGDVKQVMPDQRVIYYYAAAQTTHTTYPEGLEVLHFSSGQIEKHYPDGRKEITFPDQTVKNLFPDGQEESIFPDGTIVRVQRDGNKLIEFNNGQRELHTAQFKRREYPDGTVKTVYANGHQETKYRSGRIRVKDKEGNVLMDTEL
modifications: GFP tag
B8: GFP-A5M2: GFP-tagged CPAP residues 607-1070 (protein, UniProt Q9HC77 607-1070, looked up, fragment)
chain: ICKGHRMSSTPVKAVPQKTNPADPISHCNRSEDLDHTAREKESECEVAPKQLHSLSSADELREQPCKIRKAVQKSTSENQTEWNARDDEGVPNSDSSTDSEEQLDVTIKPSTEDRERGISSREDSPQVCDDKGPFKDTRTQEDKRRDVDLDLSDKDYSSDESIMESIKHKVSEPSRSSSLSLSKMDFDDERTWTDLEENLCNHDVVLGNESTYGTPQTCYPNNEIGILDKTIKRKIAPVKRGEDLSKSRRSRSPPTSELMMKFFPSLKPKPKSDSHLGNELKLNISQDQPPGDNARSQVLREKIIELETEIEKFKAENASLAKLRIERESALEKLRKEIADFEQQKAKELARIEEFKKEEMRKLQKERKVFEKYTTAARTFPDKKEREEIQTLKQQIADLREDLKRKETKWSSTHSRLRSQIQMLVRENTDLREEIKVMERFRLDAWKRAEAIESSLEVEKKDK
modifications: GFP tag
B9: GFP-PN2-2: GFP-tagged CPAP residues 191-310 (protein, UniProt Q9HC77 191-310, looked up, fragment)
chain: LSLLPDDQSQKHRSPGNTTTGERATCCFPSYVYPDPTQEETYPSNILSHEQSNFCRTAHGDFVLTSKRASPNLFSEAQYQEAPVEKNNLKEENRNHPTGESILCWEKVTEQIQEANDKNL
modifications: GFP tag

Each molecule was assayed against T1, polymerized microtubules (bovine brain tubulin) (Bos taurus, UniProt P81947+Q6B856) (assay: Microtubule depolymerization assay (centrosomes omitted)). Conditions: centrosomes absent; nocodazole 15 μM as positive control; data not shown.
T1 construct: containing 125 μg bovine brain tubulin (Cytoskeleton, Denver, Colo.); purchased Cytoskeleton, Denver, Colo; host or cells: bovine brain (tissue-purified)
T1 sequence (P81947 whole entry): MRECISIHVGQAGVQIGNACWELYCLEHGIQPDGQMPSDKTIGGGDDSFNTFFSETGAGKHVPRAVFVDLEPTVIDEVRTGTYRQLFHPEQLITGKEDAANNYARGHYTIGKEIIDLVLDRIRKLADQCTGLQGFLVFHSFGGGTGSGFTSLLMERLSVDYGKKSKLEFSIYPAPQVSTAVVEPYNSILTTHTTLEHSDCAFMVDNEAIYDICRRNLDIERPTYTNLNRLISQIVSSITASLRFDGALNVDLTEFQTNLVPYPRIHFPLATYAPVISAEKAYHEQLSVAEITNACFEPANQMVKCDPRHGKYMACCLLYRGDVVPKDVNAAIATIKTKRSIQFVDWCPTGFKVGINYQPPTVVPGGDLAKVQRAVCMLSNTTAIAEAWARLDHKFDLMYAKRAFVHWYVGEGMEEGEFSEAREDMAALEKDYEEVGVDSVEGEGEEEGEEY
T1 sequence (Q6B856 whole entry): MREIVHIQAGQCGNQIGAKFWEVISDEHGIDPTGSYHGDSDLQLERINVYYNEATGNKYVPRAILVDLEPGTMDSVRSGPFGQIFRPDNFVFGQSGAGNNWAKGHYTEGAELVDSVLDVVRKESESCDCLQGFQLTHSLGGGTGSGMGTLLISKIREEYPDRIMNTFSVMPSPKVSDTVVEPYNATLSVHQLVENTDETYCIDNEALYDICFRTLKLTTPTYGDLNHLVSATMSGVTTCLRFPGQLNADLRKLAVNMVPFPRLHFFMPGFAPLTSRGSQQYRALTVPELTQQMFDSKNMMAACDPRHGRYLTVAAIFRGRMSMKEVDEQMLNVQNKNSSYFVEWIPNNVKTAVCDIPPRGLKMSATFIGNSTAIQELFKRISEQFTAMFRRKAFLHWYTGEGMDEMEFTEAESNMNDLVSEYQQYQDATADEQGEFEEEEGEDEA
Assay type: biochemical
Experimental: Microtubule Depolymerization Assay
In this assay, centrosomes are omitted from the above reaction mixtures to determine the effects of various truncated GST-CPAP proteins or synthetic peptides on microtubule polymerization in the absence of centrosomes. Polymerized microtubules were stained using FITC-conjugated anti-α-tubulin monoclonal antibodies, as above. Nocodazole (15 μM) was added to some reactions mixtures as a positive control for microtubule depolymerization.

| Molecule | Disassembly of polymerized microtubules in the absence of centrosomes (in words) |
| --- | --- |
| COC(=O)Nc1nc2ccc(C(=O)c3cccs3)cc2[nH]1 [nocodazole, Nocodazole, reference compound] | disassembled |
| GST-PN2-1: GST fusion polypeptide with sub-region PN2-1 of PN2 (CPAP residues 132-190 per b157) (EFKEGAYKDPLFKKLEQLKEVQQKKQEQLKRQQLEQLQRLMEEQEKLLTMVSGQCTLPG; also: GST fusion, terminus not given here) | no such effect |
| B1 | disassembled |
| B2 | disassembled |
| B3 | disassembled |

What follows are molecules tested on HeLa cells (assay: Cell-based assay for CPAP activity: microtubule reassembly in cold-treated transfected HeLa cells). Conditions: transiently transfected HeLa cells.
Set-up: species or system human
Experimental: Cell Culture and Transfection
HeLa cells were maintained in DMEM supplemented with 10% fetal bovine serum. cDNA clones encoding different portions of CPAP were subcloned, in an appropriate reading frame, into the CMV promoter-driven EGFP-C1 expression vector (Clontech, Palo Alto, Calif.). Transient transfections were performed using Lipofectamine 2000 (Invitrogen, Carlsbad, Calif.) according to the manufacturer's instructions.
Cold Treatment, Immunofluorescence and Confocal Microscopy
HeLa cells were grown on coverslips for at least 24 hr. Cold treatment was performed by incubating the cells at 4° C. for 1 hr, then replacing the cold medium with medium warmed to 30° C. and incubating the cells for 2 min at 30° C. The cells were then fixed with 1% formaldehyde for 30 min at room temperature.
The fixed cells were incubated in the presence of anti-α-tubulin monoclonal antibodies (N356, Amersham, Piscataway, N.J.) and anti-γ-tubulin polyclonal antibodies (Sigma, Saint Louis, Mo.). Bound anti-α-tubulin monoclonal antibodies (N356) were detected with Alexa 568, a Texas Red-conjugated goat anti-mouse IgG, or Alexa 647, a far-red fluorophore-conjugated goat anti-mouse IgG. Bound anti-γ-tubulin polyclonal antibodies were detected with Alexa 568 (Molecular Probes Inc.). The resulting […] signals were detected using a laser scanning confocal system (MRC 1000, Bio-Rad Laboratories, Hercules, Calif.).
The effect of various polypeptides derived from CPAP was determined by evaluating the amounts of mitotic spindle formation in the transfected cells. Decreased mitotic spindle formation indicated the presence of an activity that inhibited microtubule formation or destabilized microtubules.

| Molecule | Inhibition of microtubule reassembly in cold-treated mitotic cells (in words) |
| --- | --- |
| B4 | no significant inhibition |
| B5 | no significant inhibition |
| B6 | significantly inhibited microtubule reassembly |
| B7 | no significant inhibition |
| B8 | no significant inhibition |
| B9 | no significant inhibition |

The molecules below were run against T2, microtubule nucleation from purified centrosomes (bovine brain tubulin) (Bos taurus, UniProt P81947+Q6B856) (assay: In vitro centrosome-dependent microtubule nucleation assay). Conditions: 20 μM or 40 μM peptide.
T2 construct: containing 125 μg bovine brain tubulin (Cytoskeleton, Denver, Colo.); purchased Cytoskeleton, Denver, Colo; host or cells: bovine brain (tissue-purified)
T2 sequence (P81947 whole entry): as the sequence (P81947 whole entry) above
T2 sequence (Q6B856 whole entry): as the sequence (Q6B856 whole entry) above
Assay type: biochemical
Experimental: In vitro Centrosome-Dependant Microtubule Nucleation Assay
Isolation of centrosomes and microtubule nucleation tests were performed as described (Hung et al., 2000). To investigate the effect of different GST-truncated CPAP fusion proteins on microtubule nucleation, purified centrosomes (4 μl per reaction) were pre-incubated with the various truncated GST-CPAP fusion proteins or FPLC purified synthetic peptides for 10 min at 4° C. The reaction mixtures were then incubated in 65 μl RG1 buffer (80 mM PIPES, pH 6.8, 1 mM EGTA, 1 mM MgCl2, and 1 mM GTP) containing 125 μg bovine brain tubulin (Cytoskeleton, Denver, Colo.) for 4 min at 37° C.
Microtubules present in the reaction mixtures were fixed in 200 μl 1% glutaraldehyde in RG1 buffer, sedimented onto acid-treated coverslips, and subjected to immunofluoresence analysis using anti-α-tubulin monoclonal antibodies N356 (Amersham, Piscataway, N.J.) or FITC-conjugated anti-α-tubulin monoclonal antibodies (DM1A-FITC; Sigma, Saint Louis, Mo.). Truncated GST-CPAP proteins were detected using an anti-GST polyclonal antibody (Molecular Probes, Cincinnati, Ohio). The extent of microtubule assembly in each reaction was determined microscopically by comparing the extent of microtubule formation on each coverslip. Decreased microtubule formation in reactions comprising polypeptides derived from CPAP indicated the ability of such polypeptides to inhibit centrosome-dependent microtubule assembly.

| Molecule | Effect of synthetic peptide on centrosome-dependent microtubule nucleation (in words) |
| --- | --- |
| B1 | inhibited centrosome-dependent microtubule nucleation in a dose dependent manner |

Same assay, conditions: in vitro, purified centrosomes

| Molecule | Inhibition of microtubule nucleation/assembly from purified centrosomes (in words) |
| --- | --- |
| B2 | inhibited |
| B3 | possessed the ability to inhibit microtubule assembly; also recorded: greatest level of inhibition |
